B1: APC/C-CDH1 modulator 1 (Saccharomyces cerevisiae), Q08981 (parent)
chain: MISPSKKRTILSSKNINQKPRAVVKGNELRSPSKRRSQIDTDYALRRSPIKTIQISKAAQFMLYEETAEERNIAVHRHNEIYNNNNSVSNENNPSQVKENLSPAKICPYERAFLREGGRIALKDLSVDEFKGYIQDPLTDETIPLTLPLGDKKISLPSFITPPRNSKISIFFTSKHQGQNPETKISRSTDDVSEKKVVRKLSFHVYEDE
partner: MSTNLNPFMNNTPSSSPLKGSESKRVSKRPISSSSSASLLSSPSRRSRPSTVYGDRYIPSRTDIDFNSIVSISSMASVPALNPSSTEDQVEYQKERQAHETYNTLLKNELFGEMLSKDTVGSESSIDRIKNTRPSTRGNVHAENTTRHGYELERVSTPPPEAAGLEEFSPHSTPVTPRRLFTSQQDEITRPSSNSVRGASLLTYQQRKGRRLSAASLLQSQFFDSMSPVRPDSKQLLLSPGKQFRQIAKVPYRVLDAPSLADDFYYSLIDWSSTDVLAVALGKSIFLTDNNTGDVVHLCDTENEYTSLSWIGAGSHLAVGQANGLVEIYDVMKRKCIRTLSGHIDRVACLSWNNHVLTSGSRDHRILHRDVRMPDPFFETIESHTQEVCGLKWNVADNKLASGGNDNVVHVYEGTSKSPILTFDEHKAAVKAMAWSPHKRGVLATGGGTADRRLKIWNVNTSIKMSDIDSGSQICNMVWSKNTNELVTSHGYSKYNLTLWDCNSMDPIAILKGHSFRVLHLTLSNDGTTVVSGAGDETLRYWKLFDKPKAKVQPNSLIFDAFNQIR
B2: Probable serine/threonine-protein kinase HSL1 (Saccharomyces cerevisiae), P34244 (parent)
chain: MTGHVSKTSHVPKGRPSSLAKKAAKRAMAKVNSNPKRASGHLERVVQSVNDATKRLSQPDSTVSVATKSSKRKSRDTVGPWKLGKTLGKGSSGRVRLAKNMETGQLAAIKIVPKKKAFVHCSNNGTVPNSYSSSMVTSNVSSPSIASREHSNHSQTNPYGIEREIVIMKLISHTNVMALFEVWENKSELYLVLEYVDGGELFDYLVSKGKLPEREAIHYFKQIVEGVSYCHSFNICHRDLKPENLLLDKKNRRIKIADFGMAALELPNKLLKTSCGSPHYASPEIVMGRPYHGGPSDVWSCGIVLFALLTGHLPFNDDNIKKLLLKVQSGKYQMPSNLSSEARDLISKILVIDPEKRITTQEILKHPLIKKYDDLPVNKVLRKMRKDNMARGKSNSDLHLLNNVSPSIVTLHSKGEIDESILRSLQILWHGVSRELITAKLLQKPMSEEKLFYSLLLQYKQRHSISLSSSSENKKSATESSVNEPRIEYASKTANNTGLRSENNDVKTLHSLEIHSEDTSTVNQNNAITGVNTEINAPVLAQKSQFSINTLSQPESDKAEAEAVTLPPAIPIFNASSSRIFRNSYTSISSRSRRSLRLSNSRLSLSASTSRETVHDNEMPLPQLPKSPSRYSLSRRAIHASPSTKSIHKSLSRKNIAATVAARRTLQNSASKRSLYSLQSISKRSLNLNDLLVFDDPLPSKKPASENVNKSEPHSLESDSDFEILCDQILFGNALDRILEEEEDNEKERDTQRQRQNDTKSSADTFTISGVSTNKENEGPEYPTKIEKNQFNMSYKPSENMSGLSSFPIFEKENTLSSSYLEEQKPKRAALSDITNSFNKMNKQEGMRIEKKIQREQLQKKNDRPSPLKPIQHQELRVNSLPNDQGKPSLSLDPRRNISQPVNSKVESLLQGLKFKKEPASHWTHERGSLFMSEHVEDEKPVKASDVSIESSYVPLTTVATSSRDPSVLAESSTIQKPMLSLPSSFLNTSMTFKNLSQILADDGDDKHLSVPQNQSRSVAMSHPLRKQSAKISLTPRSNLNANLSVKRNQGSPGSYLSNDLDGISDMTFAMEIPTNTFTAQAIQLMNNDTDNNKINTSPKASSFTKEKVIKSAAYISKEKEPDNSDTNYIPDYTIPNTYDEKAINIFEDAPSDEGSLNTSSSESDSRASVHRKAVSIDTMATTNVLTPATNVRVSLYWNNNSSGIPRETTEEILSKLRLSPENPSNTHMQKRFSSTRGSRDSNALGISQSLQSMFKDLEEDQDGHTSQADILESSMSYSKRRPSEESVNPKQRVTMLFDEEEEESKKVGGGKIKEEHTKLDNKISEESSQLVLPVVEKKENANNTENNYSKIPKPSTIKVTKDTAMESNTQTHTKKPILKSVQNVEVEEAPSSDKKNWFVKLFQNFSSHNNATKASKNHVTNISFDDAHMLTLNEFNKNSIDYQLKNLDHKFGRKVVEYDCKFVKGNFKFKIKITSTPNASTVITVKKRSKHSNTSSNKAFEKFNDDVERVIRNAGRS
partner: B1 partner
B3: APC/C activator protein CDH1 (Saccharomyces cerevisiae), P53197 (parent)
chain: B1 partner
partner: B1 chain
B4: APC/C activator protein CDH1 (Saccharomyces cerevisiae), P53197 (parent)
chain: B1 partner

Variants of: B1
Conditions: with cdh1_yeast CDH1, P53197

| Variant | effect of a mutation on the interaction |
| --- | --- |
| E66A | disrupting interaction |
| E65D | disrupting interaction |
| K98A | disrupting interaction |
| L122A | disrupting interaction |
| N100A | disrupting interaction |
| R119A | disrupting interaction |
| E99A | disrupting interaction |

Variants of: B1
Conditions: with cdh1_yeast CDH1, P53197
Remark: another data set of the same source

| Variant | effect of a mutation on the interaction |
| --- | --- |
| E66A | decreasing interaction |
| E65A | decreasing interaction |
| E69A | decreasing interaction |
| T67A | decreasing interaction |

Variants of: B1
Conditions: with cdh1_yeast CDH1, P53197
Remark: another data set of the same source

| Variant | effect of a mutation on the interaction |
| --- | --- |
| E66D | disrupting interaction |
| E65A | disrupting interaction |
| E69A | disrupting interaction |
| T67A | disrupting interaction |

Variants of: B1
Conditions: with cdh1_yeast CDH1, P53197
Remark: another data set of the same source

| Variant | effect of a mutation on the interaction |
| --- | --- |
| L11D | disrupting interaction |
| R8A | disrupting interaction |

Variants of: B2
Conditions: with cdh1_yeast CDH1, P53197

| Variant | effect of a mutation on the interaction |
| --- | --- |
| K775A | disrupting interaction |
| E776A | disrupting interaction |
| N777A | disrupting interaction |
| E781A | disrupting interaction |

Variants of: B3
Conditions: with acm1_yeast ACM1, Q08981

| Variant | effect of a mutation on the interaction |
| --- | --- |
| L255V | disrupting interaction |
| P258A | disrupting interaction |
| G535A | disrupting interaction |
| D536A | increasing interaction |

Variants of: B4
Conditions: with hsl1_yeast HSL1, P34244

| Variant | effect of a mutation on the interaction |
| --- | --- |
| L255V | disrupting interaction |
| P258A | disrupting interaction |
| G535A | disrupting interaction |
| D536A | increasing interaction |

Reference: IntAct's records for PubMed 21460798
